Reference: article PMC3916413

Target: T1, endogenous Asc of mouse macrophages (mouse (endogenous in BMDM)), Q9EPB4
T1 chain: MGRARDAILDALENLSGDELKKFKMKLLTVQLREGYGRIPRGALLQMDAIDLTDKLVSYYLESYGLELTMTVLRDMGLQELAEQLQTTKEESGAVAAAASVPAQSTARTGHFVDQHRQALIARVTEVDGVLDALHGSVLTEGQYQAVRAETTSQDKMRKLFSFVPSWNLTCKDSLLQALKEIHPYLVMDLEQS
Experiment: cross-linking; insoluble fraction (pellet) of BMDM lysates cross-linked with 2 mM disuccinimidyl suberate for 30 min, immunoblot with anti-Asc; cells infected with WT Shigella or Salmonella, T3SS-deficient or fliA mutants, nucleofected with MxiI, or with siRNA to Naip2 or Naip5
Conditions: remark: other sources report otherwise

B1: endogenous Asc of mouse macrophages, Q9EPB4 1-193 (natural protein)
chain: T1 chain
stoichiometry N: 2
